T1: human p75 neurotrophin receptor, full length, expressed on HEK 293 cells (Homo sapiens, UniProt P08138 29-427)
T1 construct: Full-length human p75 with a cytosolic fluorescent tag (GFP); also called p75NTR; NGFR
T1 sequence: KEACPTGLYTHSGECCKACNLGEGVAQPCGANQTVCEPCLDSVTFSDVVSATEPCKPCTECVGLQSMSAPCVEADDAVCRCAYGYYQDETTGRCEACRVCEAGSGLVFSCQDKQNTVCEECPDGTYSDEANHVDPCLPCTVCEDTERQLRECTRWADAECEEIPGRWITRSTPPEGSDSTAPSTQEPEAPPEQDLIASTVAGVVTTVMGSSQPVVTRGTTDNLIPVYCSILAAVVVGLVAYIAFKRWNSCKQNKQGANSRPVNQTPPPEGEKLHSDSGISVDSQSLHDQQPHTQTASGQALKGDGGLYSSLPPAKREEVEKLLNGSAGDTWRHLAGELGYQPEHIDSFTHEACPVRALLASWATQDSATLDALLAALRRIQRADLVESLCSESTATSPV

T2: human B7-1 K139D on cells (Homo sapiens, UniProt P33681 35-280)
T2 construct: mCherry-tagged point mutant; also called LYS139ASP; LYS139 ASP
T2 chain: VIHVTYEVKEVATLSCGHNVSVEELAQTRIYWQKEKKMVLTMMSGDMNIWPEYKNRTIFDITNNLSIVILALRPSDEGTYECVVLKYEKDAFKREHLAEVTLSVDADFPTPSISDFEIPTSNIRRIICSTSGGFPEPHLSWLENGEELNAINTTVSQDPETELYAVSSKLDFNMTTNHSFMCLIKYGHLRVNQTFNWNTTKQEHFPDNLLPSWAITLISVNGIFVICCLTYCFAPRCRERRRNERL

T3: human B7-1 (CD80), full length, expressed on HEK 293 cells (Homo sapiens, UniProt P33681 35-280)
T3 construct: also called hB7-1; B7-1-mCherry
T3 sequence: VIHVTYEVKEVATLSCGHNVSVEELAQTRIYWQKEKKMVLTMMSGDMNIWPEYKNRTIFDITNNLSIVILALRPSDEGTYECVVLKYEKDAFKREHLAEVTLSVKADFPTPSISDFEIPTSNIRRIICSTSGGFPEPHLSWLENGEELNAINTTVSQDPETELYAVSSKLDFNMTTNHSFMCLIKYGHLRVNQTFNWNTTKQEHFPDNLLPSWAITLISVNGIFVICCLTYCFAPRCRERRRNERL

T4: human B7-1 N82E on cells (Homo sapiens, UniProt P33681 35-280)
T4 construct: C-terminally fused to mCherry; also called ASN82 GLU
T4 chain: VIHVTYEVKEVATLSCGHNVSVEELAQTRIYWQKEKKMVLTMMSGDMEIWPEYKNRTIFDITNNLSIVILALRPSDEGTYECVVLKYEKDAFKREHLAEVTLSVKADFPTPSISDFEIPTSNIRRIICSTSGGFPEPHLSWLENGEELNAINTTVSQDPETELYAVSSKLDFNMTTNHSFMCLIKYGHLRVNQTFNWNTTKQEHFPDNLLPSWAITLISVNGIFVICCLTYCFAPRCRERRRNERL

T5: human B7-1 K120D on cells (Homo sapiens, UniProt P33681 35-280)
T5 construct: mCherry-tagged point mutant; also called LYS120 ASP
T5 chain: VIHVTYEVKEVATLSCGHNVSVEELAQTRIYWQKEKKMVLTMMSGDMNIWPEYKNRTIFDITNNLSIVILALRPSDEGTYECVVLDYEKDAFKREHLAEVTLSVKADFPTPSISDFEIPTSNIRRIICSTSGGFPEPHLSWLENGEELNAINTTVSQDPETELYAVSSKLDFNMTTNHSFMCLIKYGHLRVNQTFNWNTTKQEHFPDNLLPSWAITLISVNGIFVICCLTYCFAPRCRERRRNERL

T6: human B7-1 K127D on cells (Homo sapiens, UniProt P33681 35-280)
T6 construct: mCherry-tagged point mutant; also called LYS127 ASP
T6 chain: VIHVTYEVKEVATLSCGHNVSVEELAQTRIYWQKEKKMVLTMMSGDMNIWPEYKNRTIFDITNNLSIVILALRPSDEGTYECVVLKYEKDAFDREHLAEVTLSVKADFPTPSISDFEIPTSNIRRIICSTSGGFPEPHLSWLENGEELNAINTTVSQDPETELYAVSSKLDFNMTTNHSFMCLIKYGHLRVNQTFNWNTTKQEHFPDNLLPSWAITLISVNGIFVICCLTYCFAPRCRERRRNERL

T7: human B7-1 R63D on cells (Homo sapiens, UniProt P33681 35-280)
T7 construct: mCherry-tagged point mutant; also called ARG63 ASP
T7 chain: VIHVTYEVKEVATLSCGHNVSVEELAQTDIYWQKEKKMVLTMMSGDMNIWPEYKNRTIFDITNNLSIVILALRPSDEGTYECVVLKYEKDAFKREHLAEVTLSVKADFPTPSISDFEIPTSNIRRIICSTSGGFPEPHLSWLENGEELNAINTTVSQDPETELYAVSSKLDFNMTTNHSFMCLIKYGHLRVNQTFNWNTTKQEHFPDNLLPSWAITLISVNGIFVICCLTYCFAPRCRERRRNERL


Assays:
[1] = molecular target: T1, human p75 neurotrophin receptor, full …; assay: cell-cell screen, flow cytometry
Description: As illustrated, cells were transfected with expression cassettes expressing labeled receptors or labeled ligands, receptor-expressing cells were mixed with ligand-expressing cells and cell-to-cell binding was monitored by detecting the labels associated with the receptor and the ligand. […] Binding was detected using an anti-mIgG2A ab and flow cytometry. The binding curves were fit and the Bmax, EC50, and hill coefficient were calculated using the equation Y=Bmax*Xh/(Kdh+Xh).

[2] = molecular target: T2, human B7-1 K139D on cells; assay: cell-cell binding, flow cytometry; percent of the wild-type pair
[3] = molecular target: T3, human B7-1 (CD80), full length, …; assay: as above
human B7-1 N82E on cells = molecular target: T4, human B7-1 N82E on cells; assay: as above
[4] = molecular target: T5, human B7-1 K120D on cells; assay: as above
[5] = molecular target: T6, human B7-1 K127D on cells; assay: as above
human B7-1 R63D on cells = molecular target: T7, human B7-1 R63D on cells; assay: as above

Binder	binding result [1]	percent binding [2]	percent binding [3]	percent binding (human B7-1 N82E on cells)	percent binding [4]	percent binding [5]	percent binding (human B7-1 R63D on cells)
B7-2 expressed on cells (ligand, human, UniProt P42081 24-329, looked up, whole, on cells) APLKIQAYFNETADLPCQFANSQNQSLSELVVFWQDQENLVLNEVYLGKEKFDSVHSKYMGRTSFDSDSWTLRLHNLQIKDKGLYQCIIHHKKPTGMIRIHQMNSELSVLANFSQPEIVPISNITENVYINLTCSSIHGYPEPKKMSVLLRTKNSTIEYDGVMQKSQDNVTELYDVSISLSVSFPDVTSNMTIFCILETDKTRLLSSPFSIELEDPQPPPDHIPWITAVLPTVIICVMVFCLILWKWKKKKRPRNSYKCGTNTMEREESEQTKKREKIHIPERSDEAQRVFKSSKTSSCDKSDTCF	no binding	–	–	–	–	–	–
human p75NTR F136K on cells (receptor, Fluorescent-tagged point mutant) KEACPTGLYTHSGECCKACNLGEGVAQPCGANQTVCEPCLDSVTFSDVVSATEPCKPCTECVGLQSMSAPCVEADDAVCRCAYGYYQDETTGRCEACRVCEAGSGLVKSCQDKQNTVCEECPDGTYSDEANHVDPCLPCTVCEDTERQLRECTRWADAECEEIPGRWITRSTPPEGSDSTAPSTQEPEAPPEQDLIASTVAGVVTTVMGSSQPVVTRGTTDNLIPVYCSILAAVVVGLVAYIAFKRWNSCKQNKQGANSRPVNQTPPPEGEKLHSDSGISVDSQSLHDQQPHTQTASGQALKGDGGLYSSLPPAKREEVEKLLNGSAGDTWRHLAGELGYQPEHIDSFTHEACPVRALLASWATQDSATLDALLAALRRIQRADLVESLCSESTATSPV	–	18%	81%	77%	16%	23%	29%
human p75NTR P150K on cells (receptor, Fluorescent-tagged point mutant) KEACPTGLYTHSGECCKACNLGEGVAQPCGANQTVCEPCLDSVTFSDVVSATEPCKPCTECVGLQSMSAPCVEADDAVCRCAYGYYQDETTGRCEACRVCEAGSGLVFSCQDKQNTVCEECKDGTYSDEANHVDPCLPCTVCEDTERQLRECTRWADAECEEIPGRWITRSTPPEGSDSTAPSTQEPEAPPEQDLIASTVAGVVTTVMGSSQPVVTRGTTDNLIPVYCSILAAVVVGLVAYIAFKRWNSCKQNKQGANSRPVNQTPPPEGEKLHSDSGISVDSQSLHDQQPHTQTASGQALKGDGGLYSSLPPAKREEVEKLLNGSAGDTWRHLAGELGYQPEHIDSFTHEACPVRALLASWATQDSATLDALLAALRRIQRADLVESLCSESTATSPV	–	11%	69%	13%	17%	15%	14%
human p75NTR F136H on cells (receptor, Fluorescent-tagged point mutant) KEACPTGLYTHSGECCKACNLGEGVAQPCGANQTVCEPCLDSVTFSDVVSATEPCKPCTECVGLQSMSAPCVEADDAVCRCAYGYYQDETTGRCEACRVCEAGSGLVHSCQDKQNTVCEECPDGTYSDEANHVDPCLPCTVCEDTERQLRECTRWADAECEEIPGRWITRSTPPEGSDSTAPSTQEPEAPPEQDLIASTVAGVVTTVMGSSQPVVTRGTTDNLIPVYCSILAAVVVGLVAYIAFKRWNSCKQNKQGANSRPVNQTPPPEGEKLHSDSGISVDSQSLHDQQPHTQTASGQALKGDGGLYSSLPPAKREEVEKLLNGSAGDTWRHLAGELGYQPEHIDSFTHEACPVRALLASWATQDSATLDALLAALRRIQRADLVESLCSESTATSPV	–	13%	90%	66%	15%	16%	25%
human p75NTR P150H on cells (receptor, Fluorescent-tagged point mutant) KEACPTGLYTHSGECCKACNLGEGVAQPCGANQTVCEPCLDSVTFSDVVSATEPCKPCTECVGLQSMSAPCVEADDAVCRCAYGYYQDETTGRCEACRVCEAGSGLVFSCQDKQNTVCEECHDGTYSDEANHVDPCLPCTVCEDTERQLRECTRWADAECEEIPGRWITRSTPPEGSDSTAPSTQEPEAPPEQDLIASTVAGVVTTVMGSSQPVVTRGTTDNLIPVYCSILAAVVVGLVAYIAFKRWNSCKQNKQGANSRPVNQTPPPEGEKLHSDSGISVDSQSLHDQQPHTQTASGQALKGDGGLYSSLPPAKREEVEKLLNGSAGDTWRHLAGELGYQPEHIDSFTHEACPVRALLASWATQDSATLDALLAALRRIQRADLVESLCSESTATSPV	–	14%	38%	10%	16%	11%	13%
human p75NTR L165K on cells (receptor, Fluorescent-tagged point mutant; also called LEU165K*) KEACPTGLYTHSGECCKACNLGEGVAQPCGANQTVCEPCLDSVTFSDVVSATEPCKPCTECVGLQSMSAPCVEADDAVCRCAYGYYQDETTGRCEACRVCEAGSGLVFSCQDKQNTVCEECPDGTYSDEANHVDPCKPCTVCEDTERQLRECTRWADAECEEIPGRWITRSTPPEGSDSTAPSTQEPEAPPEQDLIASTVAGVVTTVMGSSQPVVTRGTTDNLIPVYCSILAAVVVGLVAYIAFKRWNSCKQNKQGANSRPVNQTPPPEGEKLHSDSGISVDSQSLHDQQPHTQTASGQALKGDGGLYSSLPPAKREEVEKLLNGSAGDTWRHLAGELGYQPEHIDSFTHEACPVRALLASWATQDSATLDALLAALRRIQRADLVESLCSESTATSPV	–	19%	83%	11%	20%	19%	18%
human p75NTR L165H on cells (receptor, Fluorescent-tagged point mutant; also called LEU165H*) KEACPTGLYTHSGECCKACNLGEGVAQPCGANQTVCEPCLDSVTFSDVVSATEPCKPCTECVGLQSMSAPCVEADDAVCRCAYGYYQDETTGRCEACRVCEAGSGLVFSCQDKQNTVCEECPDGTYSDEANHVDPCHPCTVCEDTERQLRECTRWADAECEEIPGRWITRSTPPEGSDSTAPSTQEPEAPPEQDLIASTVAGVVTTVMGSSQPVVTRGTTDNLIPVYCSILAAVVVGLVAYIAFKRWNSCKQNKQGANSRPVNQTPPPEGEKLHSDSGISVDSQSLHDQQPHTQTASGQALKGDGGLYSSLPPAKREEVEKLLNGSAGDTWRHLAGELGYQPEHIDSFTHEACPVRALLASWATQDSATLDALLAALRRIQRADLVESLCSESTATSPV	–	25%	64%	15%	19%	25%	26%

Reference: US20240201167A1 (ALBERT EINSTEIN COLLEGE OF MEDICINE, published 2024)
